The text below walks through data of paper PMC8025675.

As usually defined, the pKd is −log10 of the Kd, conventionally taken in molar units.

This assay concerns the target low-affinity anti-HER2 scFv (scFv Kd = 210 nM). In words: BLI. (In general: In BLI a coated tip is dipped into the sample, and binding shifts an interference pattern.)

pKd: −log10 of the molar value.

For the substance “human epidermal growth factor receptor 2 (HER2) (from UniProt P04626 23-1255)”, the pKd is 6.68.
